The target in this test is human Claudin 18.2 (human). The test can be described thus: cell-based or functional assay.

B1: IMAB-362 (antibody, human IgG1, kappa, V domains shown)
VH: QVQLQQPGAELVRPGASVKLSCKASGYTFTSYWINWVKQRPGQGLEWIGNIYPSDSYTNYNQKFKDKATLTVDKSSSTAYMQLSSPTSEDSAVYYCTRSWRGNSFDYWGQGTTLTVSS
VL: DIVMTQSPSSLTVTAGEKVTMSCKSSQSLLNSGNQKNYLTWYQQKPGQPPKLLIYWASTRESGVPDRFTGSGSGTDFTLTISSVQAEDLAVYYCQNDYSYPFTFGSGTKLEIKR
Consider B1, for which the “IC50 (ng/ml), ADCC effect (FcrR3A-V158-NFAT-RE-Jurkat effector cells, Bright-Glo), NUGC4 cells with high expression of Claudin 18.2” value was 133 ng/mL; the “IC50 (ng/ml), ADCC effect (FcrR3A-V158-NFAT-RE-Jurkat effector cells, Bright-Glo), NUGC4 cells with low expression of Claudin 18.2” value turned out to be 183 ng/mL; the “IC50 (ng/ml), ADCC effect (FcrR3A-V158-NFAT-RE-Jurkat effector cells, Bright-Glo), NUGC4 cells with medium expression of Claudin 18.2” value was 210 ng/mL.

B2: h1901-11 (antibody, human IgG1, kappa, V domains shown)
VH: EVQLVESGGGLVQPGGSLRLSCAASGFTFSDYGIHWVRQAPGKGLEWIAYISRGSSTIYYADTVKGRFTISRDNAKNSLYLQMTSLRAEDTAVYYCARGGYDTRNAMDYWGQGTTVTVSS
VL: DIVMTQSPDSLAVSLGERATISCKSSQSLLNSGNQKNYLAWYQQKPGQPPKLLIYGASTRASGVPDRFSGSGSGTDFTLTISSLQAEDVAIYHCQNDLYYPLTFGQGTKLEIKR
Take B2: the “IC50 (ng/ml), ADCC effect (FcrR3A-V158-NFAT-RE-Jurkat effector cells, Bright-Glo), NUGC4 cells with high expression of Claudin 18.2” value is 26.2 ng/mL; the “IC50 (ng/ml), ADCC effect (FcrR3A-V158-NFAT-RE-Jurkat effector cells, Bright-Glo), NUGC4 cells with low expression of Claudin 18.2” value turned out to be 22.4 ng/mL; the “IC50 (ng/ml), ADCC effect (FcrR3A-V158-NFAT-RE-Jurkat effector cells, Bright-Glo), NUGC4 cells with medium expression of Claudin 18.2” value was found to be 15.3 ng/mL.

For the origin of these results see patent US20220185881A1 (JIANGSU HENGRUI MEDICINE, published 2022).
